Experimental data published in patent publication US20220056141A1 (DEUTSCHES KREBSFORSCHUNGSZENTRUM STIFTUNG DES OFFENTLICHEN …, published 2022).
Changes are numbered by the printed parent chain.

T1: His tagged, recombinant FLT3 protein (Sino Biologicals) (human, UniProt P36888 27-541, limits assumed)
T1 construct: Bought protein; also called soluble recombinant FLT3 protein; not shown: His tag
T1 sequence (looked up): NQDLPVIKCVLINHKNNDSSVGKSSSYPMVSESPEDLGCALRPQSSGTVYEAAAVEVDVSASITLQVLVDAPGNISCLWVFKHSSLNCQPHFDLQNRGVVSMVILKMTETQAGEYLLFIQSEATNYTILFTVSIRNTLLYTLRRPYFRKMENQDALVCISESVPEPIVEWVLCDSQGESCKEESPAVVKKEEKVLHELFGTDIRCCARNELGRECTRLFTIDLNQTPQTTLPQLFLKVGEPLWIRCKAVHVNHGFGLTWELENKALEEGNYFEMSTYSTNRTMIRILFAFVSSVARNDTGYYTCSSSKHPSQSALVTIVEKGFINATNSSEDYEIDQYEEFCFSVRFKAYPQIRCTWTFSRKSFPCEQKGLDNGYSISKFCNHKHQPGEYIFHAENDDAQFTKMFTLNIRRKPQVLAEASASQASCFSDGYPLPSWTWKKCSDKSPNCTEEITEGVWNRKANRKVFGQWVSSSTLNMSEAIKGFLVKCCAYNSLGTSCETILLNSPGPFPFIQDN

T2: FLT3 on Nalm16 cells (human, UniProt P36888 27-993)
T2 construct: whole, on cells; Endogenous FLT3 of the NALM16 leukemia cell line; also called NALM16 (FLT3+); NALM-16 cells expressing FLT3
T2 sequence (looked up): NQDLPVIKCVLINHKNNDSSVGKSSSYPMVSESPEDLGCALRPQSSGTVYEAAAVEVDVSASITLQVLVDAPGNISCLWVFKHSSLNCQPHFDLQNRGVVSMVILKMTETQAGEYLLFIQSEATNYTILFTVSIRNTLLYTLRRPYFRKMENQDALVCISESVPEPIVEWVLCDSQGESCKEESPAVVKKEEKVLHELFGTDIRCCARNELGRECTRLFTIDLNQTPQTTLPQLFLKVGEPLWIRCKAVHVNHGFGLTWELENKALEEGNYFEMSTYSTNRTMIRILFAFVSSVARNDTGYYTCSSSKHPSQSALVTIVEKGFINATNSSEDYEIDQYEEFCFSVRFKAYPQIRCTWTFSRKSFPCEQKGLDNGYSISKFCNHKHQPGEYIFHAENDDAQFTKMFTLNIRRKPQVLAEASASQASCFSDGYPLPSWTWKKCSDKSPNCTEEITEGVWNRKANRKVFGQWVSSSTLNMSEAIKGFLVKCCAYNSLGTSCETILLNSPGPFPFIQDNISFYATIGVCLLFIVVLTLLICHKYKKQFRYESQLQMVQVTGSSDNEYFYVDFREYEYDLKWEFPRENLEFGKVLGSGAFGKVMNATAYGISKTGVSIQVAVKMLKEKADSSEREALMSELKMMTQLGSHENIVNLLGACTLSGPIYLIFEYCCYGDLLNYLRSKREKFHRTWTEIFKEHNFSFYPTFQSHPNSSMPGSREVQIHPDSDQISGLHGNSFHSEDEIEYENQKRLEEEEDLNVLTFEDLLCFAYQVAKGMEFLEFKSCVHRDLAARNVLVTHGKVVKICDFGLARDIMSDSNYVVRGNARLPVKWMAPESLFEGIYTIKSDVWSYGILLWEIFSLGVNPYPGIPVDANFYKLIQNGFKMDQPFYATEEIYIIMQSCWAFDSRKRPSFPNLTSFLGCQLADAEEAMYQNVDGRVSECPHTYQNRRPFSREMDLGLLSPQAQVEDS

B1: bispecific FLT3xCD3 IgGsc antibody V2-V6 (CC-2 variant 2) (bispecific antibody)
heavy: QVQLVQSGAEVKKPGGSLRLSCAASGYTFTSYWMHWVRQAPGQGLEWIGEIDPSDSYTDYAQKFKDRVTISRDTSKNTLYLQLSSLRAEDTAVYYCARAITTTPFDFWGQGTLVTVSSASTKGPSVFPLAPSSKSTSGGTAALGCLVKDYFPEPVTVSWNSGALTSGVHTFPAVLQSSGLYSLSSVVTVPSSSLGTQTYICNVNHKPSNTKVDKKVEPKSCDKTHTCPPCPAPPVAGPSVFLFPPKPKDTLMISRTPEVTCVVVGVSHEDPEVKFNWYVDGVEVHNAKTKPREEQYNSTYRVVSVLTVLHQDWLNGKEYKCKVSNKQLPSPIEKTISKAKGQPREPQVYTLPPSRDELTKNQVSLTCLVKGFYPSDIAVEWESNGQPENNYKTTPPVLDSDGSFFLYSKLTVDKSRWQQGNVFSCSVMHEALHNHYTQKSLSLSPGKSGDIQMTQSPSSLSASVGDRVTITCRASQDIRNYLNWYQQKPGKAPKLLIYYTSRLESGVPSRFSGSGSGTDYTLTISSLQPEDFATYYCQQGNTLPWTFGQGTKVEIKGGGGSGGGGSGGGGSEVQLVESGGGLVQPGGSLRLSCAASGYSFTGYTMNWVRQAPGKGLEWVALINPYKGVSTYNQKFKDRFTISVDKSKNTAYLQMNSLRAEDTAVYYCARSGYYGDSDWYFDVWGQGTLVTVSS
light: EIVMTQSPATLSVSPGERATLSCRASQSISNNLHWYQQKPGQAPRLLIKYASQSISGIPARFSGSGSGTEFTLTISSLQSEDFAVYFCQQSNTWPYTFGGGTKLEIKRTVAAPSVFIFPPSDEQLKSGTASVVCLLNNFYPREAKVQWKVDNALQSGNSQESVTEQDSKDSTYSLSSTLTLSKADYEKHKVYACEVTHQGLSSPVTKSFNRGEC
notes: Fc-attenuated IgGsc format; also called Version 2; CC-2 V2
B2: bispecific FLT3xCD3 IgGsc antibody V1-V6 (CC-2 variant 1) (bispecific antibody)
heavy: B1 heavy
light: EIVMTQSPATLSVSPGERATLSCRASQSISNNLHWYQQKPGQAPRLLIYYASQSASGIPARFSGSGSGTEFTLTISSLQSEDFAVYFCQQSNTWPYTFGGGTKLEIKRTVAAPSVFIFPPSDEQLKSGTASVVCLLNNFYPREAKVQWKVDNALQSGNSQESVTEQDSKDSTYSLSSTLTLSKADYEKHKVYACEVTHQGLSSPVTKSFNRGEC
notes: Fc-attenuated IgGsc format: VH-CH1-CH2mod-CH3-scFv(UCHT1 V6) heavy chain and VL-CL light chain; also called Version 1; CC-2 V1
B3: bispecific FLT3xCD3 IgGsc antibody V5-V6 (CC-2 variant 5) (bispecific antibody)
heavy: B1 heavy with T58K, A61N
light: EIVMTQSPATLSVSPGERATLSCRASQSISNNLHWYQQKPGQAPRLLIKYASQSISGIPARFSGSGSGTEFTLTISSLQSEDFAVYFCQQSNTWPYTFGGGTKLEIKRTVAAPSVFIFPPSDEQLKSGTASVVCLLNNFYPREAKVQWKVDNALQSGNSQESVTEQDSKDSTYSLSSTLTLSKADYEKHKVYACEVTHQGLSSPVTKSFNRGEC
notes: Fc-attenuated IgGsc format; also called Version 5; CC-2 V5
B4: bispecific FLT3xCD3 IgGsc antibody V3-V6 (CC-2 variant 3) (bispecific antibody)
heavy: QVQLVQSGAEVKKPGASVKVSCKASGYTFTSYWMHWVRQAPGQGLEWIGEIDPSDSYKDYNQKFKDRVTMTRDTSTSTVYMELSSLRSEDTAVYYCARAITTTPFDFWGQGTTVTVSSASTKGPSVFPLAPSSKSTSGGTAALGCLVKDYFPEPVTVSWNSGALTSGVHTFPAVLQSSGLYSLSSVVTVPSSSLGTQTYICNVNHKPSNTKVDKKVEPKSCDKTHTCPPCPAPPVAGPSVFLFPPKPKDTLMISRTPEVTCVVVGVSHEDPEVKFNWYVDGVEVHNAKTKPREEQYNSTYRVVSVLTVLHQDWLNGKEYKCKVSNKQLPSPIEKTISKAKGQPREPQVYTLPPSRDELTKNQVSLTCLVKGFYPSDIAVEWESNGQPENNYKTTPPVLDSDGSFFLYSKLTVDKSRWQQGNVFSCSVMHEALHNHYTQKSLSLSPGKSGDIQMTQSPSSLSASVGDRVTITCRASQDIRNYLNWYQQKPGKAPKLLIYYTSRLESGVPSRFSGSGSGTDYTLTISSLQPEDFATYYCQQGNTLPWTFGQGTKVEIKGGGGSGGGGSGGGGSEVQLVESGGGLVQPGGSLRLSCAASGYSFTGYTMNWVRQAPGKGLEWVALINPYKGVSTYNQKFKDRFTISVDKSKNTAYLQMNSLRAEDTAVYYCARSGYYGDSDWYFDVWGQGTLVTVSS
light: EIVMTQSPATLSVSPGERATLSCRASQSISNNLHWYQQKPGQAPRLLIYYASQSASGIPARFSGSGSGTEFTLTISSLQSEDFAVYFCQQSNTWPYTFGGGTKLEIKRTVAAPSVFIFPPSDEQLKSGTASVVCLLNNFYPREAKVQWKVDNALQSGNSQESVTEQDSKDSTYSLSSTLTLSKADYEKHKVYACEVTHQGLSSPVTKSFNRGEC
notes: Fc-attenuated IgGsc format; also called Version 3; CC-2 V3
B5: bispecific FLT3xCD3 IgGsc antibody V4-V6 (CC-2 variant 4) (bispecific antibody)
heavy: B4 heavy
light: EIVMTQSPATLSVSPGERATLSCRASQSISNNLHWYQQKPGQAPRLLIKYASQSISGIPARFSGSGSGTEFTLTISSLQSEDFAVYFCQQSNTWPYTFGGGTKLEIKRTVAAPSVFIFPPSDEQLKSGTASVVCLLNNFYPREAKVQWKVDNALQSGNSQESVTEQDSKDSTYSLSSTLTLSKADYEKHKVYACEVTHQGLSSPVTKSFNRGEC
notes: Fc-attenuated IgGsc format; also called Version 4; CC-2 V4
B6: bispecific FLT3xCD3 IgGsc antibody V6-V8 (bispecific antibody)
heavy: QVQLQQPGAELVKPGASLKLSCKSSGYTFTSYWMHWVRQRPGHGLEWIGEIDPSDSYKDYNQKFKDKATLTVDRSSNTAYMHLSSLTSDDSAVYYCARAITTTPFDFWGQGTTLTVSSASTKGPSVFPLAPSSKSTSGGTAALGCLVKDYFPEPVTVSWNSGALTSGVHTFPAVLQSSGLYSLSSVVTVPSSSLGTQTYICNVNHKPSNTKVDKKVEPKSCDKTHTCPPCPAPPVAGPSVFLFPPKPKDTLMISRTPEVTCVVVGVSHEDPEVKFNWYVDGVEVHNAKTKPREEQYNSTYRVVSVLTVLHQDWLNGKEYKCKVSNKQLPSPIEKTISKAKGQPREPQVYTLPPSRDELTKNQVSLTCLVKGFYPSDIAVEWESNGQPENNYKTTPPVLDSDGSFFLYSKLTVDKSRWQQGNVFSCSVMHEALHNHYTQKSLSLSPGKSGDIQMTQSPSSLSASVGDRVTITCRASQDIRNYLNWYQQKPGKAPKLLIYYTSRLESGVPSRFSGSGSGTDYTLTISSLQPEDFATYYCQQGNTLPWTFGQGTKVEIKGGGGSGGGGSGGGGSEVQLVESGGGLVQPGGSLRLSCAASGYSFTGYTMNWVRQAPGKGLEWVALINPYKGVSTYNQKFKDRFTISVDDSKNTAYLQMNSLRAEDTAVYYCARSGYYGDSDWYFDVWGQGTLVTVSS
light: DIVLTQSPATLSVTPGDSVSLSCRASQSISNNLHWYQQKSHESPRLLIKYASQSISGIPSRFSGSGSGTDFTLSINSVETEDFGVYFCQQSNTWPYTFGGGTKLEIKRTVAAPSVFIFPPSDEQLKSGTASVVCLLNNFYPREAKVQWKVDNALQSGNSQESVTEQDSKDSTYSLSSTLTLSKADYEKHKVYACEVTHQGLSSPVTKSFNRGEC
notes: Fc-attenuated IgGsc format; also called CC-2 V8
B7: bispecific FLT3xCD3 IgGsc antibody V6-V7 (bispecific antibody)
heavy: B6 heavy with N632A, Q633D, K634S, D637G
light: B6 light
notes: Fc-attenuated IgGsc format; also called CC-2 V7

biological target: T1, His tagged, recombinant FLT3 protein …; test: SPR (Biacore X); antibody captured on protein A chip, His-tagged recombinant FLT3 in solution
Protocol: FIG. 3 depicts binding of different CC-2 variants to soluble recombinant FLT3 protein. Respective antibody variants were immobilized to a Biacore chip coated with protein A and binding of His tagged, recombinant FLT3 protein (Sino Biologicals) was determined using a Biacore X instrument (GE Healthcare). Shown are the results of various mutated variants of the FLT3 antigen binding domain (V1 to V5).
In FIG. 3 the binding of different FLT3 binding domain variants V1 to V5 as indicated above was tested for their dissociation constant using a soluble recombinant FLT3 protein. Respective antibody variants were immobilized to a Biacore chip coated with protein A and binding of His tagged, recombinant FLT3 protein (Sino Biologicals) was determined using a Biacore X instrument (GE Healthcare).

Point of comparison: B1, Kd 88000 nM. Against it:
- B2 — within 1.5-fold, 63000 nM
- B3 — 550-fold lower, 160 nM
- B4 — within 1.5-fold, 87000 nM
- B5 — 180-fold lower, 480 nM

Point of comparison: B3, koff 0.00449 s⁻¹. Against it:
- B1 — 7.1-fold higher, 0.0318 s⁻¹
- B2 — 4.9-fold higher, 0.022 s⁻¹
- B4 — 5.2-fold higher, 0.0233 s⁻¹
- B5 — 2-fold higher, 0.00887 s⁻¹

Point of comparison: B3, kon 29600 M⁻¹ s⁻¹. Against it:
- B1 — 55-fold lower, 540 M⁻¹ s⁻¹
- B2 — 61-fold lower, 489 M⁻¹ s⁻¹
- B4 — 110-fold lower, 276 M⁻¹ s⁻¹
- B5 — 1.6-fold lower, 18800 M⁻¹ s⁻¹

biological target: T2, FLT3 on Nalm16 cells; test: flow cytometry (row 'EC50, FACS binding' under the bars; binding to NALM16 cells of FIG. 4)
Protocol: (§1) In addition, antibody binding affinity was also tested using binding of the antibody to its target(s) as expressed on cells. Analyzed is the binding of CC-2 variants to Nalm16 cells expressing FLT3 (FIG. 4) or Jurkat cells expressing CD3 (FIG. 6). Variants V1 to V9 (with V6 being V6-V6) were produced after transient transfection of CHO cells using the insert sequences listed above. The antibodies were purified by protein A affinity- and size exclusion-chromatography. […] To measure antibody binding to FLT3 and CD3 NALM16 (FLT3+) and Jurkat (CD3+) cells were incubated with the respective variants for 30 min, washed, stained with a goat anti human Fcγ-specific and PE-conjugated secondary antibody (Jackson Immuno Research), washed again and analyzed by flow cytometry (FACSCalibur, BD Biosciences).

Point of comparison: B3, EC50 1.3 nM. Against it:
- B1 — 7.7-fold higher, 10 nM
- B2 — higher, > 10 nM
- B4 — 6.2-fold higher, 8 nM
- B5 — 3.8-fold higher, 5 nM

biological target: T3, CD3 on Jurkat cells (human, UniProt P07766 23-207); test: flow cytometry (value under the bar; by the legend the EC50 of the binding to Jurkat cells of FIG. 6)
T3 construct: whole, on cells; also called Jurkat (CD3+); human cluster of differentiation 3 (CD3) antigen
T3 sequence (P07766 23-207): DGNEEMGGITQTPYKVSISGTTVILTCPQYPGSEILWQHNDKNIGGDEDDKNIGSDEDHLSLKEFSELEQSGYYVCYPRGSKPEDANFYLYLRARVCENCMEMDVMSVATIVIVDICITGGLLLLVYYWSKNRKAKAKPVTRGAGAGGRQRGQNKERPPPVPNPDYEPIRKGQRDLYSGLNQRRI
Protocol: as §1

Point of comparison: B6, EC50 92 nM. Against it:
- B7 — 5.4-fold higher, 496 nM

biological target: T2, FLT3 on Nalm16 cells; test: flow cytometry on NALM16 cells (FLT3+), 30 min incubation, PE-conjugated goat anti-human Fc-gamma secondary antibody
Protocol: as §1

Point of comparison: B3, “EC50 (read off the curve)” value ~1 nM. Against it:
- B4 — 8-fold higher, ~8 nM
- B5 — 5-fold higher, ~5 nM
